The values that follow come from US20130059773A1 (published 2013).

The assay addresses T1, Proliferating Cell Nuclear Antigen (PCNA), wild type, cellular (cytosolic PCNA of human neutrophils) (human, UniProt P12004 1-261).
T1 construct: Endogenous protein in human neutrophil cytosol in the co-immunoprecipitations; Expressed from pcDNA3-PCNA in PLB985 cells in the caspase-9 activity row; also called cytoplasmic PCNA; PLB985-PCNA (overexpressed form)
As to the kind of experiment: co-immunoprecipitation from neutrophil cytosol, western blot.

T1 sequence (P12004 whole entry): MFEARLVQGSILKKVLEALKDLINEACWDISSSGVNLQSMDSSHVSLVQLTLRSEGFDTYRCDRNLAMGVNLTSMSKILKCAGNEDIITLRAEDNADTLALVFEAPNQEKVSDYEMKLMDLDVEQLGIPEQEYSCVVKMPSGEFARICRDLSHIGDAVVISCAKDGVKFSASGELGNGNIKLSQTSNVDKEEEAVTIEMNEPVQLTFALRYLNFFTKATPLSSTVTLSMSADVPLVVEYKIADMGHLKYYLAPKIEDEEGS
Description: Western blot analysis and co-immunoprecipitation experiments. […] Cytosol (500 mg) was mixed with 50 ml of protein G and Ab5 pAb and incubated for 30 min at 4° C. under shaking. The sample was loaded onto a column containing Sepharose-coated magnetic beads (Milteny), washed with a stringent washing buffer (50 mM Tris, 500 mM NaCl, 1% NP-40, 0.5% Triton X-100). The column was washed twice with this buffer, twice with the same buffer except that the NaCl was 300 mM and, finally, 5 times with a hyposaline buffer (20 mM Tris pH 7.5). The sample was eluted from the column with 30 ml 5× sample buffer and analyzed by Western blotting using different mAb to potential partners.

B1: Bid (other, human, UniProt P55957 1-195, looked up)
chain: MDCEVNNGSSLRDECITNLLVFGFLQSCSDNSFRRELDALGHELPVLAPQWEGYDELQTDGNRSSHSRLGRIEADSESQEDIIRNIARHLAQVGDSMDRSIPPGLVNGLALQLRNTSRSEEDRNRDLATALEQLLQAYPRDMEKEKTMLVLALLLAKKVASHTPSLLRDVFHTTVNFINQNLRTYVRSLARNGMD
B1: the binding result is given as “no binding”.
